Experimental data published in US20220195067A1 (LAMKAP BIO BETA, published 2022).
Residue numbers refer to the chain shown, from its start. Values belong to the binder of their own block, whether it stands above or below them.

What was measured:
[1] = molecular target: T1, his-tagged recombinant huCEACAM3 (R&D Systems, #9868-CM) (human, UniProt P40198 35-155); assay: BLI (Octet), from Table 2
T1 construct: Bought reagent; also called rec. hCEACAM3; recombinant soluble human CEACAM3; not shown: His tag
T1 sequence (looked up): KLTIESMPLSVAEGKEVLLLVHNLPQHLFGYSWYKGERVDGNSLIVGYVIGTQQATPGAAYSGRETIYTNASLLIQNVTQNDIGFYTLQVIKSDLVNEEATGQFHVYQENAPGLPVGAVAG
Protocol: The affinity of the anti-human CEACAM5 arm of the CD47×CEACAM5 bispecific antibodies of the invention for recombinant soluble human CEACAM5 was determined using the Bio-Layer Interferometry (BLI) technology. An OctetRED96 instrument and Protein A biosensors were used (Sartorius). The measurement was performed at 30° C. After hydration, pre-conditioning and a baseline step in Kinetic buffer (PBS, 0.002% Tween 20, 0.01% BSA, Kathon; Sartorius), biosensors were loaded for 5 min with the κλ body at 0.5 μg/mL in Kinetic buffer. Then, biosensors were dipped into a serial dilution of recombinant human CEACAM5 Extra Cellular Domain (ECD) soluble protein (produced in house), starting at 50 nM with a 2× dilution factor. The association and dissociation phases were monitored for 600 seconds each. Biosensors were regenerated using 10 mM glycine pH 1.7. A standard acquisition rate was applied (5.0 Hz, averaging by 20). Curves were processed with a reference well subtraction, a Y alignment on the baseline, without interstep correction. The affinity was measured applying a 1:1 global fitting model on the full association and dissociation steps. The binding affinity (KD) of the bispecific antibodies of the invention to recombinant human CD47 was determined by the same experimental procedure.
The affinity of the anti-human CEACAM5 arms of the CD47×CEACAM5 bispecific antibodies of the invention for recombinant soluble human CEACAM3 was determined using the Bio-Layer Interferometry (BLI) technology and an OctetRED96 instrument. HIS1K biosensors (Sartorius), loaded with an anti-His tag antibody, were used to capture his-tagged recombinant huCEACAM3 (R&D Systems, #9868-CM). The measurement was performed at 30° C. After hydration, pre-conditioning and a baseline step in Kinetic buffer (PBS, 0.002% Tween 20, 0.01% BSA, Kathon; Sartorius), biosensors were loaded for 5 min with the recombinant huCEACAM3 at 5 μg/mL in Kinetic buffer. Then, biosensors were dipped into a serial dilution of k bodies, starting at 667 nM with a 2× dilution factor. The association and dissociation phases were monitored for 60 seconds and 120 seconds respectively. Biosensors were regenerated using 10 mM glycine pH 1.7.

[2] = molecular target: T2, human CEACAM5 on CEACAM5-expressing cancer cell lines (human, UniProt P06731 35-685); assay: flow cytometry on MKN-45 cells, K2AC100 directly labeled with a fluorochrome, in presence of 30 nM TCB2017
T2 construct: whole, on cells; also called CEACAM5 on SK-CO-1, MKN-45, HPAF-II, SNU-C1, Ls174T, LoVo cells
T2 sequence (looked up): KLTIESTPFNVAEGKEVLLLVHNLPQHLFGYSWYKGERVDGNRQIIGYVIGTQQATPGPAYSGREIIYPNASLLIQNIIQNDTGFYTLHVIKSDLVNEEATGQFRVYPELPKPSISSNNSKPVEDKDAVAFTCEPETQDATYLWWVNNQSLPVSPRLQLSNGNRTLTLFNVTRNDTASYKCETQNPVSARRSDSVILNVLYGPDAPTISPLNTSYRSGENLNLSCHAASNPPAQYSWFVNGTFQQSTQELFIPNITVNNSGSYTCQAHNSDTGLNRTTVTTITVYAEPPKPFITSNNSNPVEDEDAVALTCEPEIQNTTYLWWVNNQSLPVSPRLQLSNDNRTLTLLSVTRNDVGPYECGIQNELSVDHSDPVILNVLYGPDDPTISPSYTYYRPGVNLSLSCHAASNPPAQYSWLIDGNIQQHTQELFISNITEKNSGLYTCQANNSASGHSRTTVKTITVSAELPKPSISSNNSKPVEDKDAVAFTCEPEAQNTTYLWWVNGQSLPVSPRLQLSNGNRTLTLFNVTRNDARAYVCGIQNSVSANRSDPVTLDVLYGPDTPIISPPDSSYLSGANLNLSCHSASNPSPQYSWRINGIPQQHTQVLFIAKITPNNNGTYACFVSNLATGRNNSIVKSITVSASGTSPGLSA
Protocol: (§1) A binding assay to cells expressing CEACAM5 was performed as described in Example 6. […] An antibody was regarded as non-competitive if 300 nM of the antibody shifts the binding curve of a bispecific antibody of the invention by less than a factor of 3.
(§2) In this experiment, the concentration-dependent binding of CD47×CEACAM5 bispecific antibody K2AC100 was measured in the presence of an anti-CEACAM5 mAbs, either TCB2014 or TCB 2017. This binding was measured at the cell surface of CEACAM5-expressing MKN-45 cells. K2AC100 was directly labeled with a fluorochrome to follow its binding on MKN-45 cells alone (dark line, dark circles), in presence of 300 nM of TCB2014 (dark line, dark triangles) or 30 nM of TCB2017 (dark line, black diamonds). Negative controls (Ctrl) were used (IgG1 in presence of TCB2014 or TCB2017). […] Therefore, the K2AC100 antibody is non-competitive with the TCB2014 and TCB2017 antibodies with respect to CEACAM5 binding.

[3] = molecular target: T2, human CEACAM5 on CEACAM5-expressing …; assay: flow cytometry on MKN-45 cells, K2AC100 directly labeled with a fluorochrome, in presence of 300 nM TCB2014
Protocol: as §1, §2

[4] = molecular target: T2, human CEACAM5 on CEACAM5-expressing …; assay: flow cytometry on MKN-45 cells, K2AC100 directly labeled with a fluorochrome, no competitor
Protocol: as §1, §2

fold higher binding affinity (KD) compared to K2AC22 [1]: 28 fold
B1: K2AC84 (bispecific antibody, human IgG1, kappa, lambda)
heavy: not shown
light 1: QSVLTQPPSVSAAPGQKVTISCSGSSSNIGIGLVSWYQQLPGTAPKLLIYNVNTRPSGIPDRFSGSKSGTSATLGITGLQTGDEADYYCGTWDFSYRVDFGGGTKLTVLGQPKAAPSVTLFPPSSEELQANKATLVCLISDFYPGAVTVAWKADSSPVKAGVETTTPSKQSNNKYAASSYLSLTPEQWKSHRSYSCQVTHEGSTVEKTVAPTECS
light 2: not shown
notes: Kappa-lambda body; also called CD47xCEACAM5 bispecific antibody K2AC84; AC84 (CEACAM5 arm)

EC50 (read off the curve) [2]: ~2 µg/mL | EC50 (read off the curve) [3]: ~2 µg/mL | fold higher binding affinity (lower KD) compared to K2AC22 [1]: 14 fold | EC50 (read off the curve) [4]: ~2 µg/mL
B2: K2AC100 (bispecific antibody, human IgG1, kappa, lambda)
heavy: not shown
light 1: B1 light 1 with I31Y, V52G, T54I
light 2: not shown
notes: Kappa-lambda body; also called CD47xCEACAM5 bispecific antibody K2AC100; AC100 (CEACAM5 arm)
